This is an account of results in publication PMC12826058.

Holding throughout (experiment): SPR
In data set [1] the test system is His6-AdiY (Escherichia coli K-12 MG1655). Conditions: pH 6.0, phosphate; 1:4 DNA:protein; SPR (Biacore T200, SA chip), 25 C, 50 mM sodium phosphate pH 6.0-7.0 (50 mM citrate at pH 5.5 and 5.8), 250 mM NaCl, 2% glycerol, 2 mM DTT, 0.005% P20; 1:1 …. For orientation: SPR reads the build-up and loss of mass on a sensor chip optically.
For data set [2], the target named is T1, His6-AdiY (Escherichia coli K-12 MG1655) (UniProt P33234).
T1 sequence: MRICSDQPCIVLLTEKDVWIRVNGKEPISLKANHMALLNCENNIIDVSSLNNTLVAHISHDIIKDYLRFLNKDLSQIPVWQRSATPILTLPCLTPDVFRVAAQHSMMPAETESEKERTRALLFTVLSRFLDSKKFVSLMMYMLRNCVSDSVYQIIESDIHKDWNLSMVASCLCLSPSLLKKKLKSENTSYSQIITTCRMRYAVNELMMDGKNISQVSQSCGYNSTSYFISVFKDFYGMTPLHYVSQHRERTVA
The following applies: SPR (Biacore T200, SA chip), 25 C, 50 mM sodium phosphate pH 6.0-7.0 (50 mM citrate at pH 5.5 and 5.8), 250 mM NaCl, 2% glycerol, 2 mM DTT, 0.005% P20; 1:1 ….

The target of data set [3] is T2, His6-AdiY-H34A/H60A H34A;H60A (Escherichia coli K-12 MG1655) (UniProt P33234).
T2 sequence: T1 sequence with H34A, H60A
The following applies: SPR (Biacore T200, SA chip), 25 C, 50 mM sodium phosphate pH 6.0-7.0 (50 mM citrate at pH 5.5 and 5.8), 250 mM NaCl, 2% glycerol, 2 mM DTT, 0.005% P20; 1:1 ….

Substitutions are numbered along the chain they refer to.

A word on the Kd: it is the equilibrium constant for the complex coming apart. Higher therefore signals a looser complex. In turn, PadiC (adiC promoter) had a Kd in data set [1] of 120 nM.

Consider “TCTACGGTATGACGCCGCTGCATTATGTTAGTCAGCACAGAGAACGCACTGTCGCCTGATTTTTAACCTTAACGAAGAGCTATATTAATAACGGCATCAGCGATAACCCGGTCGATAATAATTCAACTATCGAATGCAGGCGTATGATATGACGTAATTTATTGTCACGAAGCTCGCCTTCGCAGGAGTTTAATT (double strand) [PadiC (adiC promoter)]”, for which, in data set [2], the Kd was found to be 120 nM and the binding result is “binds”. The binding result in data set [3] is given as “no binding”.

Turning to “TGCTTACCCGGTTATGAAGGAATCTTCGTTGCGGGCAAGTATCTTCCGGCCTTTTCGGGCTGTAAAGCGCGTGAAAAACAAACATTTTTGAAATATTTAGTTTTATAAACAATACGTTATGTGATTATTTTAAATTATTTTCACTGCTTATTATCGACGGCTAAACTATTTTTTTGGCTGATACTGATATCGTCT (double strand) [PadiA (adiA promoter)]”, in data set [2], the Kd turned out to be 170 nM and the binding entry was “binds”. For the same substance, the binding entry in data set [3] is reported as “no binding”.

PadiA (adiA promoter) had a Kd in data set [1] of 170 nM.
